According to patent publication US20050042227A1:

Molecular target: LRP
Experiment: cell-based or functional assay

Kuptake ratio (fusion/enzyme), RAP-IDU against rhIDU, fibroblast (ratio (fusion/enzyme)): 25
Uptake ratio (fusion/enzyme), RAP-IDU against rhIDU, fibroblast, 5 nM (ratio (fusion/enzyme)): 7
Uptake ratio (fusion/enzyme), RAP-IDU against rhIDU, fibroblast, 50 nM (ratio (fusion/enzyme)): 27
Uptake ratio (fusion/enzyme), RAP-IDU against rhIDU, fibroblast, saturation (ratio (fusion/enzyme)): 43
B1: RAP-IDU fusion (human RAP fused N-terminally to human alpha-L-iduronidase) (protein)
chain: SYSREKNQPKPSPKRESGEEFRMEKLNQLWEKAQRLHLPPVRLAELHADLKIQERDELAWKKLKLDGLDEDGEKEARLIRNLNVILAKYGLDGKKDARQVTSNSLSGTQEDGLDDPRLEKLWHKAKTSGKFSGEELDKLWREFLHHKEKVHEYNVLLETLSRTEEIHENVISPSDLSDIKGSVLHSRHTELKEKLRSINQGLDRLRRVSHQGYSTEAEFEEPRVIDLWDLAQSANLTDKELEAFREELKHFEAKIEKHNHYQKQLEIAHEKLRHAESVGDGERVSRSREKHALLEGRTKELGYTVKKHLQDLSGRISRARAEAETGEAPHLVHVDAARALWPLRRFWRSTGFCPPLPHSQADQYVLSWDQQLNLAYVGAVPHRGIKQVRTHWLLELVTTRGSTGRGLSYNFTHLDGYLDLLRENQLLPGFELMGSASGHFTDFEDKQQVFEWKDLVSSLARRYIGRYGLAHVSKWNFETWNEPDHHDFDNVSMTMQGFLNYYDACSEGLRAASPALRLGGPGDSFHTPPRSPLSWGLLRHCHDGTNFFTGEAGVRLDYISLHRKGARSSISILEQEKVVAQQIRQLFPKFADTPIYNDEADPLVGWSLPQPWRADVTYAAMVVKVIAQHQNLLLANTTSAFPYALLSNDNAFLSYHPHPFAQRTLTARFQVNNTRPPHVQLLRKPVLTAMGLLALLDEEQLWAEVSQAGTVLDSNHTVGVLASAHRPQGPADAWRAAVLIYASDDTRAHPNRSVAVTLRLRGVPPGPGLVYVTRYLDNGLCSPDGEWRRLGRPVFPTAEQFRRMRAAEDPVAAAPRPLPAGGRLTLRPALRLPSLLLVHVCARPEKPPGQVTRLRALPLTQGQLVLVWSDEHVGSKCLWTYEIQFSQDGKAYTPVSRKPSTFNLFVFSPDTGAVSGSYRVRALDYWARPGPFSDPVPYLEVPVPRGPPSPGNP
